# Patent US20120301469A1
# Columns and labels:
# [1] = biological target: protein F of hRSV strain B-1 (on RSV B-1-infected Hep2 cells and on virus) (human respiratory syncytial virus, strain B-1) (UniProt P13843); assay: cell-based or functional assay
# [2] = biological target: hRSV FTM-NN (membrane anchorless form of the Long fusion protein, 70 kDa) (human respiratory syncytial virus, strain Long) (UniProt P12568); assay: SPR (Biacore), FTM-NN amine-coupled on CM5 chip, 1:1 Langmuir fit
# [3] = biological target: protein F of hRSV strain Long, on virus (inactivated hRSV Long, Hytest #8RSV79; RSV Long LM-2, ATCC VR-26) (human respiratory syncytial virus, strain Long) (UniProt P12568); assay: cell-based or functional assay
Substance,Neutralization B-1 IC50 [1] [nM],Kd [2] [nM],koff [2] [s⁻¹],kon [2] [M⁻¹ s⁻¹],Neutralization Long IC50 [3] [nM]
"101F Fab (WO 06/050280, humanized monoclonal antibody, in-house produced)",180,,,,
"Synagis® Mab (Palivizumab, humanized monoclonal antibody)",3.9,0.64,0.00018,280000,5.96
